The values that follow come from paper PMC4168064, “Cosuppression of the chloroplast localized molecular chaperone HSP90.5 impairs plant development and chloroplast biogenesis in Arabidopsis” (BMC Research Notes, 2014).

This data set deals with the molecule itself. The experiment in a line: SEC; Superdex 200 10/30; running buffer 25 mM Tris-HCl pH 8.0, 100 mM NaCl, 10% glycerol; 600 ug of HSP90.5 62-780 or 200 ug of FLAG-tagged HSP90.5 62-780 loaded; fractions analysed by SDS-PAGE. (SEC sorts molecules by how far they enter the pores of the column.)

As usually defined, the stoichiometry N is the number of molecules, sites or subunits per partner or assembly.

B1: C-terminally FLAG-tagged mature HSP90.5 (HSP90.5 62-780 FLAG), N-terminally His6-tagged (domain or fragment, Arabidopsis thaliana, UniProt Q9SIF2 62-780, looked up)
chain: DAAVAEKETTEEGSGEKFEYQAEVSRLLDLIVHSLYSHKEVFLRELVSNASDALDKLRFLSVTEPSLLGDGGDLEIRIKPDPDNGTITITDTGIGMTKEELIDCLGTIAQSGTSKFLKALKENKDLGADNGLIGQFGVGFYSAFLVAEKVVVSTKSPKSDKQYVWESVADSSSYLIREETDPDNILRRGTQITLYLREDDKYEFAESTRIKNLVKNYSQFVGFPIYTWQEKSRTIEVEEDEPVKEGEEGEPKKKKTTKTEKYWDWELANETKPLWMRNSKEVEKGEYNEFYKKAFNEFLDPLAHTHFTTEGEVEFRSILYIPGMGPLNNEDVTNPKTKNIRLYVKRVFISDDFDGELFPRYLSFVKGVVDSDDLPLNVSREILQESRIVRIMRKRLIRKTFDMIQEISESENKEDYKKFWENFGRFLKLGCIEDTGNHKRITPLLRFFSSKNEEELTSLDDYIENMGENQKAIYYLATDSLKSAKSAPFLEKLIQKDIEVLYLVEPIDEVAIQNLQTYKEKKFVDISKEDLELGDEDEVKDREAKQEFNLLCDWIKQQLGDKVAKVQVSNRLSSSPCVLVSGKFGWSANMERLMKAQALGDTSSLEFMRGRRILEINPDHPIIKDLNAACKNAPESTEATRVVDLLYDTAIISSGFTPDSPAELGNKIYEMMAMAVGGRWGRVEEEEESSTVNEGDDKSGETEVVEPSEVRAESDPWQD
notes: Arabidopsis thaliana chloroplast HSP90.5, predicted mature form, residues 62-780, amplified from pGWB402Ω-HSP90.5FLAG and cloned into pProEXHTb; also called HSP90.5FLAG; FLAG-tagged HSP90.5; source: E. coli, purified (Ni-NTA); not shown: FLAG, C-terminal, kept
Turning to B1, the “stoichiometry N” value turned out to be 2.

B2: mature HSP90.5 (HSP90.5 62-780), N-terminally His6-tagged (domain or fragment, Arabidopsis thaliana, UniProt Q9SIF2 62-780, looked up)
chain: B1 chain
notes: Arabidopsis thaliana chloroplast HSP90.5, predicted mature form, residues D62-D780, cloned from an HSP90.5 cDNA into the p11 vector; also called wild type HSP90.5; AtHSP90.5; source: E. coli, purified (Ni-NTA)
Turning to B2, the “stoichiometry N” value came to 2.
